Experimental data published in patent US20050191294A1, “Compositions and methods of use of targeting peptides for diagnosis and therapy” (Board of Regents, The University of Texas System, priority 2003, published 2005).

Biological target: recombinant gst-fused prohibitin [GST: P08515]
Test: phage binding to gst-prohibitin immobilized on microtiter plate, 10^9 TU, bound TU counted

Chain of recombinant gst-fused prohibitin [GST: P08515] (P08515 whole entry, the tested form may be a part): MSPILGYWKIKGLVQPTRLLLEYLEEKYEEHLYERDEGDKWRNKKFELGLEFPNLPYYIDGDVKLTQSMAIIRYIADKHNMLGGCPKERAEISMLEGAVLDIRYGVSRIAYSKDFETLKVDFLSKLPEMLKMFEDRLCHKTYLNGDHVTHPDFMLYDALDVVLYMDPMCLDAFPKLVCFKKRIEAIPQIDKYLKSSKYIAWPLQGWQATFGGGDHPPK

## CKGGRAKDC (peptide, not shown: large carriers, modifications not checked) [… (SEQ ID NO:4)-displaying phage]
  fold binding relative to control insertless phage: 8 fold
